Among the data in the RNAGym collection of RNA variant scans (doi:10.7554/elife.80360) are self-cleavage values, retold here.

First the molecules themselves.
B1: Hairpin Ribozyme (parent)
chain: GUCCUCUUUCACGUGCGCGUGAAAGAGAGAAGUGAACCAGAGAAACACACGUUGUGGUAUAUUACCUGGUA

The variants in this data set derive from B1. The data set is described as follows: self-cleavage, relative activity (ratio to wild type); higher = more cleavage; co-transcriptional.
Regarding C6U A64C, the self-cleavage was 0.238.

For the variant U70A A71U, the self-cleavage turned out to be 1.63.

As for A28C G29U, the self-cleavage turned out to be 0.0915.

On to A24C G68C, for which the self-cleavage was 0.255.

As for U8C C37A, the self-cleavage amounted to 0.214.

On to A26U U62A, for which the self-cleavage was 0.214.

Regarding C46G C50U, the self-cleavage stood at 0.185.

On to U33C A61C, for which the self-cleavage turned out to be 0.074.

For the variant G56C C65U, the self-cleavage was found to be 0.16.

In the case of C10G U58A, the self-cleavage came to 0.591.

Take G27A U33A: the self-cleavage worked out at 0.0964.

As to A22C A59C, the self-cleavage was found to be 0.0825.

With A41G A71U, the self-cleavage was 0.733.

For the variant C12G G27A, the self-cleavage is 0.29.

Consider U5A U8G, for which the self-cleavage was 0.261.

For G42U U70C, the self-cleavage worked out at 0.162.

Turning to U7A A59G, the self-cleavage amounted to 0.194.

In the case of G13C A45U, the self-cleavage is 0.0506.

For U20C G42C, the self-cleavage turned out to be 0.313.

As for C3G A47G, the self-cleavage came out at 0.179.

On to G21C U62G, for which the self-cleavage stood at 0.216.

With G21U A49G, the self-cleavage turned out to be 0.408.

Consider A41G U62C, for which the self-cleavage was found to be 0.198.

On to G15C G68C, for which the self-cleavage came out at 0.165.

For the variant C4A A43C, the self-cleavage is 0.0588.

Consider C18U U20G, for which the self-cleavage is 1.13.

As to G17A A30G, the self-cleavage amounted to 0.0738.

Turning to G19A A45U, the self-cleavage is 0.1.

Take C48U G51C: the self-cleavage amounted to 0.0415.

For U5C G27C, the self-cleavage was found to be 0.15.

Regarding C18U A61C, the self-cleavage came out at 0.17.

In the case of U9G U14C, the self-cleavage came out at 0.831.

Turning to A26C A36C, the self-cleavage was determined as 0.488.

For the variant C18A G42C, the self-cleavage came out at 0.35.

For the variant U20A A41U, the self-cleavage was 1.16.

As for G21U G68A, the self-cleavage worked out at 0.237.

Turning to G25C A41C, the self-cleavage came to 0.622.

For C10G U63A, the self-cleavage came to 0.158.

As for C12U U60C, the self-cleavage is 1.02.

For C16A G29A, the self-cleavage was 0.144.

On to A39G C50U, for which the self-cleavage came out at 0.148.

For the variant G19A G51C, the self-cleavage was determined as 0.702.

As to G42U A45U, the self-cleavage amounted to 0.112.

Turning to A36C G54C, the self-cleavage was found to be 0.327.

As for U9A G40A, the self-cleavage was found to be 0.262.

Consider C46G G54C, for which the self-cleavage is 0.0768.

Take A45G C50U: the self-cleavage came out at 0.174.

In the case of G25C A30U, the self-cleavage is 0.116.

In the case of U5C U67C, the self-cleavage amounted to 0.144.

Consider U33A U63G, for which the self-cleavage was determined as 0.27.

Take G19A U63G: the self-cleavage was found to be 0.2.

C38G U52G: the self-cleavage is 0.0784.

As for A24C A61U, the self-cleavage is 0.189.

Turning to G19A A71G, the self-cleavage is 0.857.

G29C U33A: the self-cleavage was determined as 0.0541.

In the case of A44C G68A, the self-cleavage stood at 0.103.

With G19A U67A, the self-cleavage was 0.264.

Turning to C3A G32A, the self-cleavage was determined as 0.176.

For A31G G34A, the self-cleavage was found to be 1.12.

As to G54A A71C, the self-cleavage was found to be 0.977.

Take A23C G51C: the self-cleavage is 0.804.

Take U5G U8C: the self-cleavage turned out to be 0.099.

Regarding A28U C65U, the self-cleavage was determined as 0.153.

Take G15A U33C: the self-cleavage turned out to be 0.117.

Consider G29U G69C, for which the self-cleavage came to 0.0911.

For C16A G34A, the self-cleavage was found to be 1.35.

With C46G U52C, the self-cleavage is 0.144.

In the case of A11U A44C, the self-cleavage is 0.216.

For U53G U60A, the self-cleavage came to 0.44.

As for C50A U60A, the self-cleavage was 0.388.

On to C38A U60C, for which the self-cleavage came out at 0.251.

Consider G13A U63G, for which the self-cleavage is 0.0786.

A44U G56A: the self-cleavage amounted to 0.191.

With A35U G54C, the self-cleavage was found to be 0.0851.

On to A11C U67G, for which the self-cleavage worked out at 0.168.

For C6G U7A, the self-cleavage was determined as 0.337.

As for G34A G69U, the self-cleavage came to 0.208.

In the case of U52A A61G, the self-cleavage was 0.22.

For the variant U63G U67A, the self-cleavage was determined as 0.159.

With G56U A59C, the self-cleavage is 0.135.

For C38A G69A, the self-cleavage amounted to 0.146.

A43C C50G: the self-cleavage was 0.143.

For the variant C38U G57C, the self-cleavage was determined as 0.182.

Regarding A43U A44G, the self-cleavage came to 0.163.

With G25U G57U, the self-cleavage was 0.179.

With U7G A31U, the self-cleavage came to 0.216.

In the case of A11U G40A, the self-cleavage came to 0.242.

Regarding U2C C10G, the self-cleavage is 0.118.

C10U A47G: the self-cleavage turned out to be 0.169.

For U7G U55G, the self-cleavage amounted to 0.215.

Consider C48A G68A, for which the self-cleavage is 0.165.

On to G32U C37A, for which the self-cleavage stood at 0.0811.

With A45C A64C, the self-cleavage is 0.138.

In the case of A45C A64U, the self-cleavage was found to be 0.223.

As for C37U U58A, the self-cleavage came to 0.48.

As for A30U A36U, the self-cleavage amounted to 0.0371.

For A26C A47G, the self-cleavage was 0.187.

As for G40U U70C, the self-cleavage stood at 0.12.

In the case of G21C U53C, the self-cleavage amounted to 0.953.

In the case of G13A C48A, the self-cleavage was found to be 0.144.

Consider A24C G29U, for which the self-cleavage is 0.0732.

Regarding A24G C37U, the self-cleavage was 0.294.

As to A24C A71U, the self-cleavage worked out at 0.696.

As to G17U A49U, the self-cleavage came out at 0.195.

In the case of U70G A71G, the self-cleavage turned out to be 1.82.

On to G19C U63G, for which the self-cleavage was determined as 0.123.

Consider G13C G40A, for which the self-cleavage came to 0.299.

For the variant U52G U55C, the self-cleavage was determined as 0.193.

In the case of C4A U52C, the self-cleavage came to 0.182.

Regarding A36G C48A, the self-cleavage was determined as 0.196.

As to C16G G40A, the self-cleavage is 0.198.

Regarding U14A G19A, the self-cleavage is 0.756.

As for A26G U60A, the self-cleavage was found to be 0.763.

Consider U9A U52C, for which the self-cleavage turned out to be 0.6.

With A43U G51A, the self-cleavage worked out at 0.247.

Turning to A49G G57C, the self-cleavage came to 0.0948.

Take C12G U58A: the self-cleavage is 0.734.

Take G1C U7C: the self-cleavage is 0.488.

In the case of C12U A61U, the self-cleavage came to 0.133.

As to A28C U55C, the self-cleavage amounted to 0.216.

C16A A47U: the self-cleavage was found to be 0.0731.

For A43C A44G, the self-cleavage worked out at 0.0582.

As to C50U U55G, the self-cleavage is 0.368.

With U62A U70G, the self-cleavage was 0.16.

Consider C12G U52G, for which the self-cleavage was found to be 0.718.

On to G1C C18A, for which the self-cleavage came out at 0.177.

Consider U5C C38A, for which the self-cleavage came out at 0.168.

Turning to C12U G13C, the self-cleavage was found to be 0.791.

Regarding U2A G21C, the self-cleavage turned out to be 0.186.

Turning to U14A A26C, the self-cleavage was found to be 0.817.

As to G27C C66G, the self-cleavage is 0.156.

As for U2C A11G, the self-cleavage came to 0.172.

G27C A39U: the self-cleavage came to 0.0549.

U14A C50U: the self-cleavage came to 0.397.

Regarding A45U C65G, the self-cleavage stood at 0.155.

With U33G A43G, the self-cleavage worked out at 0.282.

With A59G C65G, the self-cleavage was determined as 0.247.

On to G15U G27A, for which the self-cleavage is 0.432.

Regarding G27U U60C, the self-cleavage worked out at 0.383.

Take A49U C65G: the self-cleavage amounted to 0.171.

As for C16A G32C, the self-cleavage is 0.0596.

Consider C38U A59C, for which the self-cleavage was determined as 0.228.

C38G G56U: the self-cleavage is 0.0935.

C38U U52C: the self-cleavage worked out at 0.598.

As for G25C C46A, the self-cleavage worked out at 0.129.

In the case of A47C U70G, the self-cleavage came to 0.272.

Regarding U9C G34A, the self-cleavage turned out to be 0.812.

For G40A A44G, the self-cleavage stood at 0.144.

On to U8A A26C, for which the self-cleavage worked out at 0.334.

Turning to C38G U70A, the self-cleavage worked out at 0.144.

In the case of A43C G56C, the self-cleavage came out at 0.165.

As for U14G C48A, the self-cleavage is 0.165.

Take G1U G27C: the self-cleavage was found to be 0.113.

For the variant C12U A31C, the self-cleavage stood at 0.204.

G40C A64C: the self-cleavage came out at 0.126.

As for U20G U67C, the self-cleavage came out at 0.186.

With A59U G69A, the self-cleavage worked out at 0.182.

For C48A U52C, the self-cleavage amounted to 0.162.

C4U A39U: the self-cleavage came out at 0.188.

With A59G A64U, the self-cleavage stood at 0.181.

As to U14A A30U, the self-cleavage came to 0.156.

Consider C4U G21U, for which the self-cleavage stood at 0.222.

Regarding C46U G68U, the self-cleavage was 0.119.

As for U33G U70C, the self-cleavage turned out to be 0.101.

As to A24U U62A, the self-cleavage came to 0.2.

Regarding U5G G42C, the self-cleavage was 0.0932.

U53A U55C: the self-cleavage was determined as 0.256.
